pIC50, pKd: −log10 of the molar value.
Molecular target: RGD-binding integrins on HeLa cells (α5β1, αvβ5, αvβ3) (human (endogenous in HeLa))
Assay: resonant waveguide grating (RWG) live-cell competitive adhesion assay; sensor coated with 50% PPR (RGD peptide); HeLa cells (8000 per well) with soluble S1 or BSA in HEPES-HBSS, 90 min; normalised adhesion fitted with a sigmoidal curve; Kd calculated from the IC50 with [RGD] 2.39 µM and Kd^RGD 9.4 µM

Substance: recombinant human coronavirus SARS-CoV-2 Spike Glycoprotein S1 (Active)
- pIC50: 5.85
- pKd: 5.95

— paper PMC12384205
